We go through 83 variants from the RNAGym collection of RNA variant scans (doi:10.1093/molbev/msab373).

B1: Azoarcus group I ribozyme (parent)
chain: GUGCCUUGCGCCGGGAAACCACGCAAGGGAUGGUGUCAAAUUCGGCGAAACCUAAGCGCCCGCCCGGGCGUAUGGCAACGCCGAGCCAAGCUUCGGCGCCUGCGCCGAUGAAGGUGUAGAGACUAGACGGCACCCACCUAAGGCAAACGCUAUGGUGAAGGCAUAGUCCAGGGAGUGGCGAAAGUCACACAAACCGG

The variants in this data set derive from B1. The data set can be described thus: reverse-splicing fitness (ratio to wild type); higher = more active; in vitro selection; Mg2+ level not given. The essentials:
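An in vitro group I ribozyme library with randomized positions was T7-transcribed and gel-purified. In triplicate, 10 pmol RNA in EPPS pH 7.5 was reacted with 50 pmoles of a 30-nt RNA substrate for 1 h at 37 °C across several added MgCl2 levels (1–48 mM), then stopped with EDTA. Products were reverse transcribed from a substrate-complementary primer, PCR-amplified and sequenced (HiSeq 4000). Fitness is a variant's read proportion after selection over that before, normalised to wild type.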
For the variant C82U A111U A120G A145G C150A C169A U176G, the reverse-splicing fitness turned out to be 0.00564.
C82U A111U A120G A145G C150A C169A U176C: the reverse-splicing fitness is 0.02.
For C82U A111U A120G A145G C150A C169A U176A the value was 0.0153; for C82U A111U A120G A145U C150U C169G, 0.00885; for C82U A111U A120G A145U C150U C169U, 0.00788.
As for C82U A111U A120G A145U C150U C169A, the reverse-splicing fitness worked out at 0.00897.
For C82U A111U A120C C150G C169U U176G the value was 0.00538.
For C82U A111U A120C C150G C169U U176C the value was 0.0149.
For the variant C82U A111U A120C C150G C169U U176A, the reverse-splicing fitness was 0.0091.
For C82U A111U A120C C150A C169U the value was 0.0114; for C82U A111U A120C C150A C169A, 0.00966.
To C82U A111U A120C C150A C169G belongs 0.0083.
Regarding C82U A111U A120C C150U C169G U176G, the reverse-splicing fitness was found to be 0.00509.
For C82U A111U A120C C150U C169G U176C the value was 0.0147; for C82U A111U A120C C150U C169G U176A, 0.0138.
To C82U A111U A120G A145U C169U U176C belongs 0.0132.
To C82U A111U A120G A145U C169U U176G belongs 0.0035; to C82U A111U A120G A145U C169U U176A, 0.0203.
On to C82U A111U A120G A145G C150G C169G U176G, for which the reverse-splicing fitness worked out at 0.00498.
To C82U A111U A120G A145G C150G C169G U176A belongs 0.00842.
To C82U A111U A120G A145G C150G C169G U176C belongs 0.0107.
For C82U A111U A120C C150U C169U the value was 0.0134.
Turning to C82U A111U A120C C150U C169A, the reverse-splicing fitness was 0.00987.
To C82U A111U A120C C150U C169G belongs 0.00829; to C82U A111U A120G A145U C150U U176G, 0.00443; to C82U A111U A120G A145U C150U U176A, 0.00953.
As to C82U A111U A120G A145U C150U U176C, the reverse-splicing fitness came to 0.013.
For C82U A111U A120G C150G C169G U176A the value was 0.00605; for C82U A111U A120G C150G C169G U176C, 0.00449; for C82U A111U A120G C150G C169G U176G, 0.00425.
To C82U A111U A120G A145C C150A C169U belongs 0.00623; to C82U A111U A120G A145C C150A C169G, 0.00785.
For C82U A111U A120G A145C C150A C169A the value was 0.00756.
For the variant C82U A111U A120G A145C C150U C169G U176G, the reverse-splicing fitness came out at 0.00484.
To C82U A111U A120G A145C C150U C169G U176A belongs 0.0216; to C82U A111U A120G A145C C150U C169G U176C, 0.0111; to C82U A111U A120G A145C C150A C169A U176A, 0.0108.
For C82U A111U A120G A145C C150A C169A U176G the value was 0.00517; for C82U A111U A120G A145C C150A C169A U176C, 0.0062; for C82U A111U A120G C150U U176C, 0.0136.
To C82U A111U A120G C150U U176A belongs 0.0102; to C82U A111U A120G C150U U176G, 0.00537; to C82U A111U A120G A145U C169G U176G, 0.00402.
In the case of C82U A111U A120G A145U C169G U176C, the reverse-splicing fitness is 0.0121.
For the variant C82U A111U A120G A145U C169G U176A, the reverse-splicing fitness stood at 0.0111.
Regarding C82U A111U A120G C150A C169A U176G, the reverse-splicing fitness worked out at 0.00561.
For C82U A111U A120G C150A C169A U176C, the reverse-splicing fitness was 0.0173.
To C82U A111U A120G C150A C169A U176A belongs 0.0189; to C82U A111U A120C C150G C169A U176G, 0.00603.
In the case of C82U A111U A120C C150G C169A U176C, the reverse-splicing fitness worked out at 0.0101.
For the variant C82U A111U A120C C150G C169A U176A, the reverse-splicing fitness was 0.0105.
To C82U A111U A120G A145U C150A U176A belongs 0.0096; to C82U A111U A120G A145U C150A U176G, 0.00425; to C82U A111U A120G A145U C150A U176C, 0.0112.
To C82U A111U A120G A145U C169U belongs 0.00798.
For C82U A111U A120G A145U C169A the value was 0.00696.
For C82U A111U A120G A145U C169G, the reverse-splicing fitness turned out to be 0.00838.
To C82U A111U A120G A145G C169A belongs 0.01; to C82U A111U A120G A145G C169G, 0.00995; to C82U A111U A120G A145G C169U, 0.00849.
C82U A111U A120G A145G C150A U176C: the reverse-splicing fitness was determined as 0.0166.
To C82U A111U A120G A145G C150A U176G belongs 0.00603; to C82U A111U A120G A145G C150A U176A, 0.0093; to C82U A111U A120C C169A U176A, 0.0152.
To C82U A111U A120C C169A U176G belongs 0.00513.
Turning to C82U A111U A120C C169A U176C, the reverse-splicing fitness worked out at 0.0138.
To C82U A111U A120G A145C U176G belongs 0.00374.
To C82U A111U A120G A145C U176C belongs 0.00925.
C82U A111U A120G A145C U176A: the reverse-splicing fitness is 0.00965.
For C82U A111U A120G A145U C150G C169U U176A the value was 0.0116; for C82U A111U A120G A145U C150G C169U U176G, 0.00463.
For C82U A111U A120G A145U C150G C169U U176C, the reverse-splicing fitness worked out at 0.0111.
As to C82U A111U A120C C150U C169U U176A, the reverse-splicing fitness is 0.0177.
To C82U A111U A120C C150U C169U U176G belongs 0.00524.
Take C82U A111U A120C C150U C169U U176C: the reverse-splicing fitness was 0.0157.
As for C82U A111U A120C A145U C169U U176A, the reverse-splicing fitness turned out to be 0.0155.
To C82U A111U A120C A145U C169U U176C belongs 0.0136.
For C82U A111U A120C A145U C169U U176G the value was 0.00395.
For C82U A111U A120G A145G C150G C169U U176C the value was 0.0112; for C82U A111U A120G A145G C150G C169U U176A, 0.012.
Regarding C82U A111U A120G A145G C150G C169U U176G, the reverse-splicing fitness was found to be 0.00647.
To C82U A111U A120G C150G U176A belongs 0.00524; to C82U A111U A120G C150G U176G, 0.00288.
